In the supplement of paper PMC7877785:
± gives the uncertainty stated by the source.

Assay: self-splicing fitness, log relative to wild type (ln ratio); higher = more splicing; Tetrahymena group I intron in knt gene, E. coli kanamycin selection, DiMSum; sequences stand for … in CUCUCU…GGAGGGAAAAGUUAUCAGGCAUGCACCUGGUAGCUAGUCUUUAAACCAAUAGAUUGCAUCGGUUUAAAAGGCAAGACCGUCAAAUUGCGGGAAAGGGGUCAACAGCCGUUCAGUACCAAGUCUCAGGGGAAACUUUGAGAUGGCCUUGCAAAGGGUAUGGUAAUAAGCUGACGGACAUGGUCCUAACCACGCAGCCAAGUCCUAAGUCAACAGAUCUUCUGUUGAUAUGGAUGCAGUUCACAGACUAAAUGUCGGUCGGGGAAGAUGUAUUCUUCUCAUAAGAUAUAGUCGGACCUCUCCUUAAUGGGAGCUAGCGGAUGAAGUGAUGCAACACUGGAGCCGCUGGGAACUAAUUUGUAUGCGAAAGUAUAUUGAUUAGUUUUGGAGUACUCGUGGUCG
Outline: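 DiMSum derived fitness as the error-weighted combination of fold changes across replicates, kanamycin versus no kanamycin, normalised to wild type. E. coli BL21(DE3) held the library, which randomised all eight P1ex-region intron nucleotides within the knt kanamycin-resistance gene on pET-22b(+). Six replicate transformations grew overnight at 37°C or 30°C on LB agar with or without 25 μg/mL kanamycin, also containing 100 μg/mL carbenicillin, 50 μM IPTG and 0.2% rhamnose, and pooled colonies were amplicon-sequenced on an Illumina HiSeq 2500.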

Sequence	self-splicing fitness (ln) (30 °C)	self-splicing fitness (ln) (37 °C)
AAGCAGCAAUAUUACGCCUU	-2.42 ± 0.16	-1.35 ± 0.12
AAGCAGCAAUAUUACGCGCG	-1.16 ± 0.082	-0.105 ± 0.1
AAGCAGCAAUAUUACGGAAC	-3.6 ± 0.3	–
AAGCAGCAAUAUUACGGAAU	-3.08 ± 0.13	-1.66 ± 0.11
AAGCAGCAAUAUUACGGACA	-1.69 ± 0.16	0.0141 ± 0.11
AAGCAGCAAUAUUACGGAGA	-2.7 ± 0.13	-1.44 ± 0.13
AAGCAGCAAUAUUACGGAGU	-3.69 ± 0.13	-1.15 ± 0.1
AAGCAGCAAUAUUACGGCCC	0.22 ± 0.14	0.271 ± 0.17
AAGCAGCAAUAUUACGGCGA	-0.328 ± 0.075	0.355 ± 0.094
AAGCAGCAAUAUUACGGGAU	-3.63 ± 0.14	-1.92 ± 0.1
AAGCAGCAAUAUUACGGUGU	-1.85 ± 0.09	-0.979 ± 0.12
AAGCAGCAAUAUUACGGUUA	-0.142 ± 0.072	0.0491 ± 0.087
AAGCAGCAAUAUUACGUAAA	-1.84 ± 0.087	-0.803 ± 0.11
AAGCAGCAAUAUUACGUACC	-1.17 ± 0.19	-0.569 ± 0.22
AAGCAGCAAUAUUACGUCCA	-0.662 ± 0.089	-0.156 ± 0.1
AAGCAGCAAUAUUACGUCGG	-2.24 ± 0.1	-1.7 ± 0.17
AAGCAGCAAUAUUACGUCUU	-1.66 ± 0.075	-1.05 ± 0.071
AAGCAGCAAUAUUACGUGCG	-0.989 ± 0.073	-0.0742 ± 0.092
AAGCAGCAAUAUUACGUGGG	-3.54 ± 0.13	-1.36 ± 0.084
AAGCAGCAAUAUUACGUGUC	-2.94 ± 0.15	-2.01 ± 0.15

Sequence	self-splicing fitness (ln) (30 °C)	self-splicing fitness (ln) (37 °C)
AAGCAGCAAUAUUACGUUAU	-2.38 ± 0.089	-1.21 ± 0.1
AAGCAGCAAUAUUACGUUGC	-2.46 ± 0.099	-3.24 ± 0.21
AAGCAGCAAUAUUACGUUUG	-3.04 ± 0.13	-1.73 ± 0.14
AAGCAGCAAUAUUACGUUUU	-3.3 ± 0.14	-2.52 ± 0.14
AAGGAGCAAUAUUACGAAGG	-3.3 ± 0.28	-2.99 ± 0.41
AAGGAGCAAUAUUACGAAGU	-3.53 ± 0.43	-2.57 ± 0.36
AAGGAGCAAUAUUACGACAA	-2.38 ± 0.2	-2.16 ± 0.33
AAGGAGCAAUAUUACGACAU	-2.282 ± 0.02	-1.6 ± 0.037
AAGGAGCAAUAUUACGACCU	-0.0623 ± 0.16	-0.475 ± 0.2
AAGGAGCAAUAUUACGAGAA	-3.76 ± 0.42	-2.22 ± 0.24
AAGGAGCAAUAUUACGAGAC	-2.03 ± 0.44	–
AAGGAGCAAUAUUACGAGUG	–	-2.2 ± 0.4
AAGGAGCAAUAUUACGAGUU	-3.53 ± 0.17	-1.65 ± 0.12
AAGGAGCAAUAUUACGAUAC	-3.49 ± 0.39	-3.25 ± 0.37
AAGGAGCAAUAUUACGAUAG	-4.31 ± 0.46	-2.87 ± 0.43
AAGGAGCAAUAUUACGCAAA	-3.1 ± 0.3	-2.7 ± 0.32
AAGGAGCAAUAUUACGCACA	–	-1.89 ± 0.47
AAGGAGCAAUAUUACGCCGU	-1.14 ± 0.27	-1.16 ± 0.37
AAGGAGCAAUAUUACGCGAA	-1.94 ± 0.22	-1.39 ± 0.23
